Here are results for 1 molecule from patent publication US8901076 (Molecular Partners, dated 2014).

This assay has as its target VEGF-A165 (UniProt P15692 27-191). Briefly: cell-based or functional assay.

Sequence of VEGF-A165 (P15692 other isoform, or with tags, fused parts or gaps): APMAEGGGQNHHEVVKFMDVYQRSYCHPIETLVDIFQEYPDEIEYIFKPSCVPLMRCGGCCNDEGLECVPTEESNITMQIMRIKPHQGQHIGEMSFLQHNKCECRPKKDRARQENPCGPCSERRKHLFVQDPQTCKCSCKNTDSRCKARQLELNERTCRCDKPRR

B1: DARPin #30 (designed binder)
chain: GSDLGKKLLEAARAGQDDEVRILMANGADVNTADSTGWTPLHLAVPWGHLEIVEVLLKYGADVNAKDFQGWTPLHLAAAIGHQEIVEVLLKNGADVNAQDKFGKTAFDISIDNGNEDLAEILQKAA
On to B1, for which the “IC50 (read off the curve); sprout length of VEGF-A165 stimulated HUVEC spheroids” value was roughly 0.03 nM.
